US20250325675A1, “APTAMER, CONJUGATE, COMPOSITION, METHOD FOR PREPARING SAME, AND USE THEREOF” (priority 2022, published 2025)
Non-standard residues stand in square brackets, D forms with d. Residues, ends and D or L forms follow the SMILES beside them. *: point of attachment. Dolaproine = CO[C@@H]([C@@H]1CCCN1)[C@@H](C)C(=O)O; Dil = CC[C@H](C)[C@H](NC)[C@@H](CC(=O)O)OC; X1 = C[C@@H](N*)[C@@H](O)c1ccccc1; NMeV = CN[C@H](C(=O)O)C(C)C

Legend:
[1] = test system: U118MG glioma subcutaneous tumor; experiment: In vivo anti-tumor activity in U118MG subcutaneous tumor mice (Experimental Example 11); set-up: species or system NOD-SCID mice
Experimental: The mice in this experiment were purchased from SPF Co., LTD: the germline was NOD-SCID, the grade was SPF, male, 6-8 weeks old; U118MG neuroglioma cells were purchased from Jennio.
The conjugate AP2 above was formulated into a 1.94 mg/mL solution with PBS. Conjugate 20 was respectively formulated into 0.625 mg/mL, 1.25 mg/mL and 2.06 mg/mL solutions with PBS (all calculated based on the amount of aptamer). MMAE (purchased from Shanghai Macklin Inc., Lot No. C12886583) was dissolved into a 0.038 mg/mL solution with a mixed solution of 10% DMSO+90% PBS (volume ratio).
The day of inoculation is designated as D1, and administration is performed once on D8, D12, D16 and D20.
36 mice were randomly divided into the following 6 groups (6 mice per group):
For blank control group 1, PBS was administered by tail vein injection with a single administration volume of 10 μL/g. […]
The long diameters and short diameters of the tumors were measured in vitro. The tumor volume was calculated according to the equation ½ (long diameter×short diameter^2). Prior to the first administration on D8, the tumor volumes in each group were measured and the average tumor volumes were recorded; the tumor volumes in each group were measured and recorded from D16 (twice a week).

[2] = test system: U118MG subcutaneous tumor; experiment: Long-interval administration in U118MG subcutaneous tumor model mice (Experimental Example 23); assay type: in vivo; settings: 0.1 or 0.3 mg/kg subcutaneous on D8, D11, D15, D29, D32, D36
Experimental: According to the method of Experimental Example 4, 42 mice inoculated with U118MG subcutaneous tumor were obtained, and were further fed after injection.
MMAE was dissolved into solutions with concentrations of 0.03 mg/mL and 0.01 mg/mL with 10% DMSO+90% serum-free DMEM medium (volume ratio). Conjugate 39 was dissolved into solutions with concentrations of 0.5 mg/mL and 0.165 mg/mL (based on aptamer). Comparative conjugate 44 was dissolved into solutions with concentrations of 0.5 mg/mL and 0.165 mg/mL (based on aptamer).
7 days after inoculation of U118MG cells, all mice were randomly divided into seven groups (6 mice per group), and each group of mice was administered. […] The mice were weighed before administration and the administration volume was calculated according to weight. […]
The tumor volumes were measured on D1, D9, D16, D19, D21, D24, D26, D29, D32, D36, D39, D43, D47, D53, D57, D60, D64, D67, D71, D74, D78, D81, D84, D88, D92, D95, and D99, wherein the blank control group was measured on D53, and test groups 7a, 7b and control group 7c were measured on D60, and then the experiment was terminated.
The long diameters and short diameters of the tumors were measured in vitro. The tumor volume was calculated according to the equation ½ (long diameter×short diameter^2). After the experiment was terminated, the tumor tissues were taken and weighed, and the average value was calculated.

[3] = test system: U118MG glioma subcutaneous tumor; experiment: In vivo distribution in U118MG cell subcutaneous tumor model mice (Experimental Example 4); set-up: species or system NOD-SCID mice; settings: mouse, in vivo
Experimental: U118MG human glioma cells in the logarithmic growth phase were selected and digested (0.25% pancreatic enzyme).
The mice were further fed for 20 days after injection.
The mice inoculated with U118MG above were randomly divided into 3 groups (4 mice per group). For the 4 mice per group, the administration volume was calculated according to 10 μL/g body weight, and AP1, AP2 and comparative AP11 were respectively administered to different groups of mice by tail vein injection and designated as test group 4A1, test group 4A2 and control group 4A3. Thus, the administration dosage of each mouse was 3 mg/kg (based on aptamer). Another mouse inoculated with U118MG above was administered with 1×DMEM medium by tail vein injection (the administration volume was 10 μL/g body weight), and designated as blank control group 4Y.

[4] = test system: U118MG subcutaneous tumor; experiment: In vivo distribution of conjugates with different modifications in U118MG subcutaneous tumor model mice (Experimental Example 6); set-up: species or system NOD-SCID mice; settings: 3 mg/kg tail vein
Experimental: U118MG subcutaneous tumor model mice were prepared according to the method described in experimental Example 4.
9 mice were divided into 3 groups (3 mice per group). AP2, AP3 and comparative AP12 solutions were respectively administered to each mouse of each group by tail vein injection. […] The three groups of mice were respectively designated as test group 6A, test group 6B and test group 6C. […] On Day 10 after administration, one mouse of blank control group 6Y and one mouse of test group 6A was respectively euthanized and tumor tissues were taken for fluorescence imaging, and the results are shown in FIG. 5H. In FIGS. 5A-5H, Blank represents blank control group 6Y.

[5] = test system: U118MG in situ brain glioma; settings: mouse, in vivo, 3 mg/kg
Experimental: U118MG human glioma cells in the logarithmic growth phase cultured as described in experimental Example 4 were selected and digested with 0.25% pancreatic enzyme. The cells were collected, the supernatant was aspirated, and then the cells were resuspended in DMEM medium supplemented with 10% FBS to be formulated into a cell culture solution with a cell density of 4×10^7 cells/mL.
Experimental animals were 16 NOD-SCID mice (male, 12 weeks old, purchased from SPF (Beijing) Biotechnology Co., LTD.). […]
AP1, AP2 and comparative AP11 were respectively dissolved into conjugate solutions with a concentration of 0.3 mg/mL (based on aptamer) with 1×DMEM medium. […] The administration dosage for all animals was calculated according to body weight, the administration volume was all 10 μL/g, and the administration dosage was 3 mg/kg per animal (based on the amount of aptamer). […]
At 24 h after administration, one mouse in each group was respectively euthanized and brain tissue was taken, and the remaining mice were euthanized at 48 h after administration and brain tissues were taken. The brain tissues of mice were taken for fluorescence imaging in IVIS Lumina Series III.

| Compound | growth rate of tumor volume ([1]; control group 3: 0.3 mg/kg tail vein on D8, D12, D16, D20) | growth rate of tumor volume [2] | fluorescence signal in mice / at site of tumor inoculation [3] | fluorescence intensity in vivo / tumor ([4]; 4 h to 24 h after administration) | fluorescent signal in vivo / tumor ([4]; 48 h to Day 10 after administration) | tumor volume over time ([1]; control group 2: 15.5 mg/kg tail vein on D8, D12, D16, D20) | fluorescence signal at brain glioma [5] |
| --- | --- | --- | --- | --- | --- | --- | --- |
| CC[C@H](C)[C@@H]([C@@H](CC(=O)N1CCC[C@H]1[C@H](OC)[C@@H](C)C(=O)N[C@H](C)[C@@H](O)c1ccccc1)OC)N(C)C(=O)[C@@H](NC(=O)[C@@H](NC)C(C)C)C(C)C [MMAE, Monomethylauristatin E, reference compound] (H-[NMeV]V[Dil][Dolaproine]-X1) | growth rate of the tumor volume was reduced | growth rate of tumor volume was reduced |  |  |  |  |  |
| CY5-CmUmGmGmAmGmUmUmCmAmGmAmCmGmUmGmUmUmGmCmUmCmUmUmCmCmGmAmUmCmUmCm [AP2] |  |  | strong fluorescence signal at the sites of tumor inoculation | still show high fluorescence intensity | still show strong fluorescent signal | increased rapidly | obvious fluorescence signals at both 24 and 48 h |
